# Test results published in article PMC8629787 (Cellular and Molecular Life Sciences: CMLS, 2021).
# B1: BambL, fucose-binding lectin of Burkholderia ambifaria (recombinant, unlabelled) (natural protein)
# chain: not shown
# Target: the molecule itself
# Assay: SEC
protein,measurement,value
B1,stoichiometry N,3
